Measured values as given in paper PMC6488296, “Optogenetic control shows that kinetic proofreading regulates the activity of the T cell receptor” (eLife, 2019).

Biological target: T1, PhyB_(1-651)-Avitag-His6 (A. thaliana, UniProt P14713 1-651, phycocyanobilin chromophore; biotin on the Avitag)
T1 construct: phytochrome B (PhyB), Arabidopsis thaliana, the light-responsive N-terminal 651 amino acids; 740 nm light puts them in the OFF state; also called PhyB(660); PhyB(740); source: E. coli BL21(DE3) co-transformed with p171 (phycocyanobilin production), 50 uM biotin in the medium, purified (Ni-NTA); not shown: Avitag, C-terminal, kept; His6, C-terminal, kept
T1 sequence (looked up): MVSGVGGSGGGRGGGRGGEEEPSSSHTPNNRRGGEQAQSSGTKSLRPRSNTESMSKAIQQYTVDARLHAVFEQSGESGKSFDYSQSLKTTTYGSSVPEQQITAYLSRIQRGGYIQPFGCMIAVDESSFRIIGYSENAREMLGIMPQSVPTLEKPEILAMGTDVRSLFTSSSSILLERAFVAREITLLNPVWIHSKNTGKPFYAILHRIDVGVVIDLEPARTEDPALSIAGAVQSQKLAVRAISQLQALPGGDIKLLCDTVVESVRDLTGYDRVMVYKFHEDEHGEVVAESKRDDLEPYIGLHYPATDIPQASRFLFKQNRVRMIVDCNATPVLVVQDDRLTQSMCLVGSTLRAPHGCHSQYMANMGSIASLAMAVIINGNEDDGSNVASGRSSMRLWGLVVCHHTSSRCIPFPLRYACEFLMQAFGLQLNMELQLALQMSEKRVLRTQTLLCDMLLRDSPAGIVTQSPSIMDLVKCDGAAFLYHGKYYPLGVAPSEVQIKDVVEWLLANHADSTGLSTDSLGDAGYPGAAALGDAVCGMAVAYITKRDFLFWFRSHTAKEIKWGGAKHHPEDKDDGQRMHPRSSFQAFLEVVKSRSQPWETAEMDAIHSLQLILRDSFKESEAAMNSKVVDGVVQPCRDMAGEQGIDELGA
Assay: SEC; 200 ug PhyB illuminated with 660 nm light, added in a 2:1 molar ratio to MBP-PIF (limiting MBP-PIF); 60 min at room temperature; Superdex 200 10/300 GL; PhyB detected at 671 nm
Conditions: both partners purified

binding result: binds
B1: MBP-PIF6_(1-100)-His6 (domain or fragment, A. thaliana, UniProt Q8L5W7 1-100, looked up)
chain: MMFLPTDYCCRLSDQEYMELVFENGQILAKGQRSNVSLHNQRTKSIMDLYEAEYNEDFMKSIIHGGGGAITNLGDTQVVPQSHVAAAHETNMLESNKHVD
notes: also called MBP-PIF(wt); pOSY061; source: E. coli BL21(DE3), purified (Ni-NTA); not shown: His6, C-terminal, kept
